Experimental data: the RNAGym collection of RNA variant scans (doi:10.7554/elife.80360)

B1: HDV Ribozyme (parent)
chain: GGCCGGCAUGGUCCCAGCCUCCUCGCUGGCGCCGGCUGGGCAACAUUCCGAGGGGACCGUCCCCUCGGUAAUGGCGAAUGGGACCCA

Variants of: B1
Experiment: self-cleavage, relative activity (ratio to wild type); higher = more cleavage; co-transcriptional

First: GGCCGUCAUGGUCCCAGCCUCCUCGCUGGCGCCGGCUGGGCAACAUUCCGAGGGGACCGUCCCCUCGGUAAUGGCGAUUGGGACCCA [G6U A78U]
Second: GGCCGUCAUGGUCCCAGCCUUCUCGCUGGCGCCGGCUGGGCAACAUUCCGAGGGGACCGUCCCCUCGGUAAUGGCGAAUGGGACCCA [G6U C21U]
The self-cleavage of the first is lower: 0.107 for the first, 0.122 for the second.

Compared with GGCCGUCAUGGUCCCAGCCUCCUCGCUGGCGCCGGGUGGGCAACAUUCCGAGGGGACCGUCCCCUCGGUAAUGGCGAAUGGGACCCA [G6U C36G], GGCCGUCAUGGUCCCAGCCUCCUCGCUGGCGCCGGUUGGGCAACAUUCCGAGGGGACCGUCCCCUCGGUAAUGGCGAAUGGGACCCA [G6U C36U] is higher in self-cleavage: 0 for the first, 0.227 for the second.

First: GGCCGUCAUGGUGCCAGCCUCCUCGCUGGCGCCGGCUGGGCAACAUUCCGAGGGGACCGUCCCCUCGGUAAUGGCGAAUGGGACCCA [G6U C13G]
Second: GGCCGUCAUGGUACCAGCCUCCUCGCUGGCGCCGGCUGGGCAACAUUCCGAGGGGACCGUCCCCUCGGUAAUGGCGAAUGGGACCCA [G6U C13A]
The self-cleavage of the first is lower: 0 for the first, 0.0875 for the second.

First: GGCCGUCAUGGUCACAGCCUCCUCGCUGGCGCCGGCUGGGCAACAUUCCGAGGGGACCGUCCCCUCGGUAAUGGCGAAUGGGACCCA [G6U C14A]
Second: GGCCGUCAUGGUCUCAGCCUCCUCGCUGGCGCCGGCUGGGCAACAUUCCGAGGGGACCGUCCCCUCGGUAAUGGCGAAUGGGACCCA [G6U C14U]
The self-cleavage of the first is lower: 0.0692 for the first, 0.682 for the second.

Compared with GGCCGUCAUGGUCGCAGCCUCCUCGCUGGCGCCGGCUGGGCAACAUUCCGAGGGGACCGUCCCCUCGGUAAUGGCGAAUGGGACCCA [G6U C14G], GGCCGUCAUGGUCCCAGCCUCCUCGCUGGCGCCGGCUGGGCAACAUUCCGAGGGGACCGUCCCCUCGGUAAUGGCGAAUGGGACCCU [G6U A87U] is higher in self-cleavage: 0.166 for the first, 0.591 for the second.

First: GGCCGUCAUGGUCCCAGCCUCCUCGAUGGCGCCGGCUGGGCAACAUUCCGAGGGGACCGUCCCCUCGGUAAUGGCGAAUGGGACCCA [G6U C26A]
Second: GGCCGCCAUGGCCCCAGCCUCCUCGCUGGCGCCGGCUGGGCAACAUUCCGAGGGGACCGUCCCCUCGGUAAUGGCGAAUGGGACCCA [G6C U12C]
The self-cleavage of the first is higher: 0.397 for the first, 0.123 for the second.

Going from GGCCGCCAUGGGCCCAGCCUCCUCGCUGGCGCCGGCUGGGCAACAUUCCGAGGGGACCGUCCCCUCGGUAAUGGCGAAUGGGACCCA [G6C U12G] to GGCCGUCAUGGUCCCAGCCUCCUUGCUGGCGCCGGCUGGGCAACAUUCCGAGGGGACCGUCCCCUCGGUAAUGGCGAAUGGGACCCA [G6U C24U], the self-cleavage rises from 0 to 0.133.

First: GGCCGUCAUGGUCCCAGCCUCCUAGCUGGCGCCGGCUGGGCAACAUUCCGAGGGGACCGUCCCCUCGGUAAUGGCGAAUGGGACCCA [G6U C24A]
Second: GGCCGUCAUGGUCCCAGCUUCCUCGCUGGCGCCGGCUGGGCAACAUUCCGAGGGGACCGUCCCCUCGGUAAUGGCGAAUGGGACCCA [G6U C19U]
The self-cleavage of the first is lower: 0.0378 for the first, 0.0489 for the second.

Compared with GGCCGUCAUGGUCCCAGCCUCCUCGCUGGCGCCGGCUGGGCAACAUUCCGAGGGGACCGUCCCCUCGGUAAUGGCGGAUGGGACCCA [G6U A77G], GGCCGUCAUGGUCCCAGCCUCCUCGCUGGCGCCGGCUGGGCAACAUUCCGAGGGGACCGUCCCCUCGGUAAUGGCGUAUGGGACCCA [G6U A77U] is lower in self-cleavage: 0.302 for the first, 0.158 for the second.

Going from GGCCGUCAUGGUCCUAGCCUCCUCGCUGGCGCCGGCUGGGCAACAUUCCGAGGGGACCGUCCCCUCGGUAAUGGCGAAUGGGACCCA [G6U C15U] to GGCCGUCAUGGUCCAAGCCUCCUCGCUGGCGCCGGCUGGGCAACAUUCCGAGGGGACCGUCCCCUCGGUAAUGGCGAAUGGGACCCA [G6U C15A], the self-cleavage falls from 0.646 to 0.

First: GGCCGUCAUGGUCCCAGCCUCGUCGCUGGCGCCGGCUGGGCAACAUUCCGAGGGGACCGUCCCCUCGGUAAUGGCGAAUGGGACCCA [G6U C22G]
Second: GGCCGUCAUGGUCCCAGCCUCUUCGCUGGCGCCGGCUGGGCAACAUUCCGAGGGGACCGUCCCCUCGGUAAUGGCGAAUGGGACCCA [G6U C22U]
The self-cleavage of the first is lower: 0.0489 for the first, 0.136 for the second.

First: GGCCGCCACGGUCCCAGCCUCCUCGCUGGCGCCGGCUGGGCAACAUUCCGAGGGGACCGUCCCCUCGGUAAUGGCGAAUGGGACCCA [G6C U9C]
Second: GGCCGCCAGGGUCCCAGCCUCCUCGCUGGCGCCGGCUGGGCAACAUUCCGAGGGGACCGUCCCCUCGGUAAUGGCGAAUGGGACCCA [G6C U9G]
The self-cleavage of the first is higher: 0.391 for the first, 0.208 for the second.

First: GGCCGUUAUGGUCCCAGCCUCCUCGCUGGCGCCGGCUGGGCAACAUUCCGAGGGGACCGUCCCCUCGGUAAUGGCGAAUGGGACCCA [G6U C7U]
Second: GGCCGUCAUGGUCCCAGCCUCCUCGCUGGCGCCGGCUGGGCAACAUUCCGAGGGGACCGUCCCCUCGGUAGUGGCGAAUGGGACCCA [G6U A71G]
The self-cleavage of the first is lower: 0.151 for the first, 0.399 for the second.

Going from GGCCGUCAUGGUCCCAGCCUCCUCGCUGGCGCCGGCUGGGCAACAUUCCGAGGGGACCGUCCCCUCGGUACUGGCGAAUGGGACCCA [G6U A71C] to GGCCGUCAUGGUCCCAGCCUCCUCGCUGGCGCCGGCUGGGCAACAUUCCGAGGGGACCGUCCCCUCGGUAAUGGCGAAUGGGCCCCA [G6U A83C], the self-cleavage falls from 0.123 to 0.0852.

Compared with GGCCGUCAUGGUCCCAGCCUCCUCGCUGGCGCCGGCUGGGCAACAUUCCGCGGGGACCGUCCCCUCGGUAAUGGCGAAUGGGACCCA [G6U A51C], GGCCGUCAUGGUCCCAGCCUCCUCGCUGGCGCCGGCUGGGCAACAUUCCGGGGGGACCGUCCCCUCGGUAAUGGCGAAUGGGACCCA [G6U A51G] is lower in self-cleavage: 0.656 for the first, 0.475 for the second.

Going from GGCCGUCAUGGUCCCAGCCUCCUCGCUGGCGCAGGCUGGGCAACAUUCCGAGGGGACCGUCCCCUCGGUAAUGGCGAAUGGGACCCA [G6U C33A] to GGCCGUCAUGGUCCCAGCCUCCUCGCUGGCGCGGGCUGGGCAACAUUCCGAGGGGACCGUCCCCUCGGUAAUGGCGAAUGGGACCCA [G6U C33G], the self-cleavage rises from 0.0332 to 0.196.
